System: IGF-1
Test: Serum IGF-1 levels in cynomolgus monkeys after a single antibody dose
Type: in vivo, cynomolgus monkey
Experimental: Serum samples were analyzed for changes in IGF-1 levels compared to baseline using an R&D Systems™ Quantikine™ human IGF-1 immunoassay kit (cat. #DG100).
To determine if GHR antagonist monoclonal antibodies can affect IGF-1, IGFBP-3, and ALS levels in vivo by inhibiting the function of GHR, the effect of humanized anti-human GHR antibody SS1 was tested in cynomolgus monkeys. A dose-response study was conducted to test for changes in IGF-1, IGFBP-3, and ALS levels following a single dose of SS1. Eight naïve female cynomolgus monkeys were injected intravenously with a single dose of SS1 or negative control human IgG2, in 1×PBS 0.01% Tween™ 20. Two monkeys were dosed with 30 mg/kg SS1, two were dosed with 10 mg/kg SS1, two were dosed with 3 mg/kg SS1, and two were dosed with 30 mg/kg negative control human IgG2Δa on Day 1. Serum samples were taken from all animals at the following timepoints: pre-dose, 24 h, 48 h, 72 h, 120 h, 144 h, 192 h, 240 h, 336 h, 528 h, 696 h. Serum was also taken from the 30 mg/kg SS1 and negative control treated animals at 864 h post-dose.
Six naïve female cynomolgus monkeys were injected either intravenously or subcutaneously with a single dose of […] or negative control human IgG2Δa in 1×PBS 0.01% Tween™ 20. Two monkeys were dosed with 3 mg/kg SS1 intravenously, two were dosed with 3 mg/kg SS1 subcutaneously, and two were dosed with 3 mg/kg negative control human IgG2Δa subcutaneously on Day 1. Serum samples were taken from all animals at the following timepoints: pre-dose, 24 h, 72 h, 120 h, 168 h, 216 h, 264 h, 312 h, 360 h, 408 h, 456 h and 504 h.

B1: SS1: humanized GHR antagonist antibody; VL SEQ ID NO: 7, VH SEQ ID NO: 8; hIgG2Δa heavy chain SEQ ID NO: 134, light chain SEQ ID NO: 135 (antibody)
heavy: EVQLVESGGGLVKPGGSLRLSCAASGFTFSDAWMDWVRQAPGKGLEWVAEIRSKANYHATYYAESVKGRFTISRDDSKNTLYLQMNSLKTEDTAVYYCTLIRDYWGQGTLVTVSSASTKGPSVFPLAPCSRSTSESTAALGCLVKDYFPEPVTVSWNSGALTSGVHTFPAVLQSSGLYSLSSVVTVPSSNFGTQTYTCNVDHKPSNTKVDKTVERKCCVECPPCPAPPVAGPSVFLFPPKPKDTLMISRTPEVTCVVVDVSHEDPEVQFNWYVDGVEVHNAKTKPREEQFNSTFRVVSVLTVVHQDWLNGKEYKCKVSNKGLPSSIEKTISKTKGQPREPQVYTLPPSREEMTKNQVSLTCLVKGFYPSDIAVEWESNGQPENNYKTTPPMLDSDGSFFLYSKLTVDKSRWQQGNVFSCSVMHEALHNHYTQKSLSLSPGK
light: EIVLTQSPGTLSLSPGERATLSCTATSSVSSSYLNWYQQKPGQAPRLLIYSTSNLASGIPDRFSGSGSGTDFTLTISRLEPEDFAVYYCHQYHRSTPTFGGGTKVEIKRTVAAPSVFIFPPSDEQLKSGTASVVCLLNNFYPREAKVQWKVDNALQSGNSQESVTEQDSKDSTYSLSSTLTLSKADYEKHKVYACEVTHQGLSSPVTKSFNRGEC
modifications: Humanized and/or affinity matured antibody sequence
serum IGF-1 levels (% change from baseline) (Table 10, cynomolgus monkeys, SS1 3 mg/kg IV single dose, 24 h post-injection): −43.6 +/− 0.5%
serum IGF-1 levels (% change from baseline) (Table 10, cynomolgus monkeys, SS1 3 mg/kg IV single dose, 48 h post-injection): −66.6 +/− 1.1%
serum IGF-1 levels (% change from baseline) (Table 10, cynomolgus monkeys, SS1 3 mg/kg IV single dose, 72 h post-injection): −67.1 +/− 1.6%
serum IGF-1 levels (% change from baseline) (Table 10, cynomolgus monkeys, SS1 3 mg/kg IV single dose, 120 h post-injection): −76.2 +/− 7.9%
serum IGF-1 levels (% change from baseline) (Table 10, cynomolgus monkeys, SS1 3 mg/kg IV single dose, 144 h post-injection): −68.4 +/− 1.1%
serum IGF-1 levels (% change from baseline) (Table 10, cynomolgus monkeys, SS1 3 mg/kg IV single dose, 192 h post-injection): −65.2 +/− 3.0%
serum IGF-1 levels (% change from baseline) (Table 10, cynomolgus monkeys, SS1 3 mg/kg IV single dose, 240 h post-injection): −34.5 +/− 17.8%
serum IGF-1 levels (% change from baseline) (Table 10, cynomolgus monkeys, SS1 3 mg/kg IV single dose, 336 h post-injection): 64.2 +/− 0.6%
serum IGF-1 levels (% change from baseline) (Table 10, cynomolgus monkeys, SS1 3 mg/kg IV single dose, 528 h post-injection): 85.1 +/− 46.0%
serum IGF-1 levels (% change from baseline) (Table 10, cynomolgus monkeys, SS1 3 mg/kg IV single dose, 696 h post-injection): 49.2 +/− 11.3%
serum IGF-1 levels (% change from baseline) (Table 10, cynomolgus monkeys, SS1 10 mg/kg IV single dose, 24 h post-injection): −43.4 +/− 2.2%
serum IGF-1 levels (% change from baseline) (Table 10, cynomolgus monkeys, SS1 10 mg/kg IV single dose, 48 h post-injection): −62.6 +/− 5.5%
serum IGF-1 levels (% change from baseline) (Table 10, cynomolgus monkeys, SS1 10 mg/kg IV single dose, 72 h post-injection): −67.1 +/− 4.7%
serum IGF-1 levels (% change from baseline) (Table 10, cynomolgus monkeys, SS1 10 mg/kg IV single dose, 120 h post-injection): −73.5 +/− 2.1%
serum IGF-1 levels (% change from baseline) (Table 10, cynomolgus monkeys, SS1 10 mg/kg IV single dose, 144 h post-injection): −76.0 +/− 0.1%
serum IGF-1 levels (% change from baseline) (Table 10, cynomolgus monkeys, SS1 10 mg/kg IV single dose, 192 h post-injection): −74.0 +/− 0.2%
serum IGF-1 levels (% change from baseline) (Table 10, cynomolgus monkeys, SS1 10 mg/kg IV single dose, 240 h post-injection): −70.9 +/− 1.9%
serum IGF-1 levels (% change from baseline) (Table 10, cynomolgus monkeys, SS1 10 mg/kg IV single dose, 336 h post-injection): −61.4 +/− 0.6%
serum IGF-1 levels (% change from baseline) (Table 10, cynomolgus monkeys, SS1 10 mg/kg IV single dose, 528 h post-injection): 25.7 +/− 11.8%
serum IGF-1 levels (% change from baseline) (Table 10, cynomolgus monkeys, SS1 10 mg/kg IV single dose, 696 h post-injection): 31.7 +/− 15.2%
serum IGF-1 levels (% change from baseline) (Table 10, cynomolgus monkeys, SS1 30 mg/kg IV single dose, 24 h post-injection): −43.2 +/− 3.0%
serum IGF-1 levels (% change from baseline) (Table 10, cynomolgus monkeys, SS1 30 mg/kg IV single dose, 48 h post-injection): −63.2 +/− 5.0%
serum IGF-1 levels (% change from baseline) (Table 10, cynomolgus monkeys, SS1 30 mg/kg IV single dose, 72 h post-injection): −68.5 +/− 5.8%
serum IGF-1 levels (% change from baseline) (Table 10, cynomolgus monkeys, SS1 30 mg/kg IV single dose, 120 h post-injection): −75.2 +/− 5.2%
serum IGF-1 levels (% change from baseline) (Table 10, cynomolgus monkeys, SS1 30 mg/kg IV single dose, 144 h post-injection): −77.5 +/− 5.6%
serum IGF-1 levels (% change from baseline) (Table 10, cynomolgus monkeys, SS1 30 mg/kg IV single dose, 192 h post-injection): −77.2 +/− 3.3%
serum IGF-1 levels (% change from baseline) (Table 10, cynomolgus monkeys, SS1 30 mg/kg IV single dose, 240 h post-injection): −74.8 +/− 3.4%
serum IGF-1 levels (% change from baseline) (Table 10, cynomolgus monkeys, SS1 30 mg/kg IV single dose, 336 h post-injection): −73.3 +/− 0.7%
serum IGF-1 levels (% change from baseline) (Table 10, cynomolgus monkeys, SS1 30 mg/kg IV single dose, 528 h post-injection): −73.0 +/− 0.9%
serum IGF-1 levels (% change from baseline) (Table 10, cynomolgus monkeys, SS1 30 mg/kg IV single dose, 696 h post-injection): −70.4 +/− 1.1%
serum IGF-1 levels (% change from baseline) (Table 10, cynomolgus monkeys, SS1 30 mg/kg IV single dose, 864 h post-injection): −8.8 +/− 2.9%
serum IGF-1 levels (% change from baseline) (Table 13, cynomolgus monkeys, SS1 3 mg/kg IV single dose, 24 hour post-injection): −35 +/− 4.4%
serum IGF-1 levels (% change from baseline) (Table 13, cynomolgus monkeys, SS1 3 mg/kg IV single dose, 72 hour post-injection): −64.8 +/− 2.7%
serum IGF-1 levels (% change from baseline) (Table 13, cynomolgus monkeys, SS1 3 mg/kg IV single dose, 120 hour post-injection): −71.6 +/− 1.8%
serum IGF-1 levels (% change from baseline) (Table 13, cynomolgus monkeys, SS1 3 mg/kg IV single dose, 168 hour post-injection): −70.2 +/− 2.7%
serum IGF-1 levels (% change from baseline) (Table 13, cynomolgus monkeys, SS1 3 mg/kg IV single dose, 216 hour post-injection): −64.5%
serum IGF-1 levels (% change from baseline) (Table 13, cynomolgus monkeys, SS1 3 mg/kg IV single dose, 264 hour post-injection): −36.0%
serum IGF-1 levels (% change from baseline) (Table 13, cynomolgus monkeys, SS1 3 mg/kg IV single dose, 312 hour post-injection): −30.3%
serum IGF-1 levels (% change from baseline) (Table 13, cynomolgus monkeys, SS1 3 mg/kg IV single dose, 360 hour post-injection): −27.8%
serum IGF-1 levels (% change from baseline) (Table 13, cynomolgus monkeys, SS1 3 mg/kg SQ single dose, 24 hour post-injection): −46.7 +/− 9.9%
serum IGF-1 levels (% change from baseline) (Table 13, cynomolgus monkeys, SS1 3 mg/kg SQ single dose, 72 hour post-injection): −62.5 +/− 2.5%
serum IGF-1 levels (% change from baseline) (Table 13, cynomolgus monkeys, SS1 3 mg/kg SQ single dose, 120 hour post-injection): −68.7 +/− 2.8%
serum IGF-1 levels (% change from baseline) (Table 13, cynomolgus monkeys, SS1 3 mg/kg SQ single dose, 168 hour post-injection): −65.6 +/− 4.1%
serum IGF-1 levels (% change from baseline) (Table 13, cynomolgus monkeys, SS1 3 mg/kg SQ single dose, 216 hour post-injection): −60.7%
serum IGF-1 levels (% change from baseline) (Table 13, cynomolgus monkeys, SS1 3 mg/kg SQ single dose, 264 hour post-injection): −40.9%
serum IGF-1 levels (% change from baseline) (Table 13, cynomolgus monkeys, SS1 3 mg/kg SQ single dose, 312 hour post-injection): −15.3%
serum IGF-1 levels (% change from baseline) (Table 13, cynomolgus monkeys, SS1 3 mg/kg SQ single dose, 360 hour post-injection): −4.2%
time until which serum IGF-1 remained below 60% baseline levels (cynomolgus monkeys, 3 mg/kg SS1 either SQ or IV): about 216 hour
time until which serum IGF-1 remained substantially lower than baseline (cynomolgus monkeys, SS1 3 mg/kg IV single dose): 240 h
time until which serum IGF-1 remained substantially lower than baseline (cynomolgus monkeys, SS1 10 mg/kg IV single dose): 336 h
time until which serum IGF-1 remained substantially lower than baseline (cynomolgus monkeys, SS1 30 mg/kg IV single dose): 696 h
